According to the supplement of paper PMC10567573:

B1: ZNF649 (parent)
chain: EHERAHRGEKPHGCSLCGKAFYKR

Variants of: B1
Assay: protein stability index of a GFP-peptide fusion (GPS, HEK-293T) (PSI 1-6); higher = more stable
Details: c terminus: a fixed tail appended
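Further: lentivirally expressed fusions sorted by FACS into six bins by GFP to DsRed ratio, PSI derived from sequencing read proportions per bin multiplied by bin number.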

Protein stability index: each site, then its substitutions
P11: W 1.9 | Y 2.01
H12: A 2.74 | C 1.46 | E 2 | F 3.39 | G 1.89 | I 4.08 | K 2.49 | M 3.47 | N 1.47 | P 1.7 | Q 2.18 | R 1.66 | S 1.32 | W 1.64
G13: A 2.43 | C 1.9 | E 2.48 | F 2.72 | I 3.07 | L 2.2 | M 3.08 | N 2.89 | P 1.88 | S 1.95 | T 2.42 | V 2.03 | Y 3.31
C14: A 4.66 | D 4.54 | F 2.69 | G 4.18 | H 4.25 | I 4.24 | K 4.59 | L 3.94 | N 4.12 | P 3.12 | R 3.73 | S 4.83 | T 3.91 | V 4.78 | Y 3.56
S15: A 1.84 | D 3.14 | E 2.21 | G 1.56 | H 5.95 | I 2.01 | K 3.12 | L 2.27 | M 1.93 | N 2.39 | P 4.16 | Q 1.41 | R 2.23 | V 1.67 | W 1.72 | Y 2.48
L16: A 3.17 | C 3.54 | D 3.82 | E 3.8 | F 1.83 | G 3.96 | I 2.2 | K 2.79 | M 1.74 | N 2.07 | P 3.48 | Q 3.02 | R 2.18 | S 1.97 | T 2.16 | V 3.34 | Y 2.14
C17: D 4.19 | E 2.58 | F 3.48 | G 4.07 | H 3.67 | I 3.81 | K 4.13 | L 3.64 | M 3.87 | N 4.44 | P 3.85 | Q 4.46 | R 4.43 | S 3.35 | T 4.48 | V 3.18 | W 3 | Y 2.48
G18: A 1.43 | C 1.59 | D 2.45 | E 2.77 | H 2.15 | I 1.67 | K 2.03 | L 2.42 | M 1.72 | N 2.49 | Q 1.89 | R 3.06 | S 2.5 | T 2.34 | V 2 | W 1.54 | Y 1.85
K19: A 1.61 | C 1.78 | D 2.13 | E 1.73 | G 1.41 | H 2.44 | I 1.61 | M 2.01 | N 2.43 | P 1.42 | T 1.97 | V 1.44 | Y 2.19
A20: C 2 | D 2.51 | F 2.57 | H 3.2 | I 1.95 | K 2.74 | M 2.62 | N 1.83 | R 2.78 | T 2.17 | V 1.79 | Y 1.75
F21: C 2.13 | D 2.34 | G 2.11 | H 3.38 | L 3.61 | M 2.37 | P 2.74 | S 2.13 | T 2.14 | V 2.01 | Y 2.95
Y22: A 2.22 | D 2.48 | F 2.95 | I 1.93 | K 3.13 | L 2.68 | M 2.69 | N 2.35 | P 1.52 | Q 2.36 | T 1.93 | V 1.36 | W 1.81
K23: C 2.64 | D 1.9 | G 2.65 | H 1.83 | I 1.92 | L 1.77
